Patent US20240116985A1 (published 2024)
Starred links: 1 amine or outer side, 2 acyl side, 3 side chain; linkers in the order of their positions; H or OH if unused. Positions of bridges follow the written chain, without caps; N, C: chain ends. Non-standard residues stand in square brackets, D forms with d. Primed or numbered codes have the meaning given here. PyrS2″ = (S)-3-amino-1-((pent-4-en-1-yloxy)carbonyl)pyrrolidine-3-carboxylic acid (stapling residue), C=CCCCOC(=O)N1CC[C@@](N[*:1])(C(=O)[*:2])C1; B5(4) = 2,2-bis(4-pentenyl)glycine = 2-amino-2-(pent-4-en-1-yl)hept-6-enoic acid (stitching residue), C=CCCCC(CCCC=C)(N[*:1])C(=O)[*:2]; TfeGA = (S)-2-amino-3-((carboxymethyl)(2,2,2-trifluoroethyl)amino)propanoic acid, O=C([C@H](CN(CC(=O)[*:3])CC(F)(F)F)N[*:1])[*:2]; (EtSSPh)AspE = (S)-2-amino-4-oxo-4-(2-(phenyldisulfaneyl)ethoxy)butanoic acid, O=C(C[C@H](N[*:1])C(=O)[*:2])OCCSSc1ccccc1; (EtSSHex)AspE = (S)-2-amino-4-(2-(hexyldisulfaneyl)ethoxy)-4-oxobutanoic acid, CCCCCCSSCCOC(=O)C[C@H](N[*:1])C(=O)[*:2]; (Morph)GlnR = (S)-2-amino-5-morpholino-5-oxopentanoic acid, O=C(CC[C@H](N[*:1])C(=O)[*:2])N1CCOCC1; B5(3) = 2,2-bis(4-pentenyl)glycine (stitching residue), C=CCCCC(CCCC=C)(N[*:1])C(=O)[*:2]; B5 = 2-amino-2-(pent-4-en-1-yl)hept-6-enoic acid, C=CCCCC(CCCC=C)(N[*:1])C(=O)[*:2]; Phe(3-COOH) = N[C@@H](Cc1cccc(C(=O)O)c1)C(=O)O; 2F3MeF = Cc1cccc(C[C@H](N[*:1])C(=O)[*:2])c1F; Phe(4-Cl) = N[C@@H](Cc1ccc(Cl)cc1)C(=O)O; Phe(2-F) = N[C@@H](Cc1ccccc1F)C(=O)O; Bta = N[C@@H](Cc1csc2ccccc12)C(=O)O; αAllylPro = C=CC[C@@]1(C(=O)O)CCCN1; tBuAla = CC(C)(C)C[C@H](N)C(=O)O; 3Thi = N[C@@H](Cc1ccsc1)C(=O)O; S8 = C=CCCCCCC[C@](C)(N)C(=O)O

T1: B-cat-Halo (beta-catenin HaloTag NanoBRET construct expressed in HEK293 cells) (UniProt P35222 1-781)
T1 sequence (looked up): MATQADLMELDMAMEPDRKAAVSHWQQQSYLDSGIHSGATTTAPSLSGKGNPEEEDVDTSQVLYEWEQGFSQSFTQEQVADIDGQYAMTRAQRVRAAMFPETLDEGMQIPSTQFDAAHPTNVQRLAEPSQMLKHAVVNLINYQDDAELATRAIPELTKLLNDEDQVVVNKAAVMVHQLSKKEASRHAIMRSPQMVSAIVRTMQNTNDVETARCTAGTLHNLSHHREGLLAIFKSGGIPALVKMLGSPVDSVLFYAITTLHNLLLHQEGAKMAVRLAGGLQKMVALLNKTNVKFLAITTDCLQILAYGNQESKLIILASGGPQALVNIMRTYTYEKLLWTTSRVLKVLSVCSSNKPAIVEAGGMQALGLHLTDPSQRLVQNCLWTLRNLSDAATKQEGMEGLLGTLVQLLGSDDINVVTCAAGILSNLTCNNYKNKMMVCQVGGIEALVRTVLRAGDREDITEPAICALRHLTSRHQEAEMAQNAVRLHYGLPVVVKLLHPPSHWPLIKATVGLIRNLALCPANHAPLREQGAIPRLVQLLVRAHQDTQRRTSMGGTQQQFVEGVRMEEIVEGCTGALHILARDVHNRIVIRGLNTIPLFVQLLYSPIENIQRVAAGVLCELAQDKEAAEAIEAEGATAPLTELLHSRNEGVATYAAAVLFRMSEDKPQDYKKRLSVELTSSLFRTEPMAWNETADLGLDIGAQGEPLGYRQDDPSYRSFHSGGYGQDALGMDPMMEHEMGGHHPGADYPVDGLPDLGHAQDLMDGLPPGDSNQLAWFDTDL

T2: B-cat-Halo (UniProt P35222 1-781)
T2 sequence (looked up): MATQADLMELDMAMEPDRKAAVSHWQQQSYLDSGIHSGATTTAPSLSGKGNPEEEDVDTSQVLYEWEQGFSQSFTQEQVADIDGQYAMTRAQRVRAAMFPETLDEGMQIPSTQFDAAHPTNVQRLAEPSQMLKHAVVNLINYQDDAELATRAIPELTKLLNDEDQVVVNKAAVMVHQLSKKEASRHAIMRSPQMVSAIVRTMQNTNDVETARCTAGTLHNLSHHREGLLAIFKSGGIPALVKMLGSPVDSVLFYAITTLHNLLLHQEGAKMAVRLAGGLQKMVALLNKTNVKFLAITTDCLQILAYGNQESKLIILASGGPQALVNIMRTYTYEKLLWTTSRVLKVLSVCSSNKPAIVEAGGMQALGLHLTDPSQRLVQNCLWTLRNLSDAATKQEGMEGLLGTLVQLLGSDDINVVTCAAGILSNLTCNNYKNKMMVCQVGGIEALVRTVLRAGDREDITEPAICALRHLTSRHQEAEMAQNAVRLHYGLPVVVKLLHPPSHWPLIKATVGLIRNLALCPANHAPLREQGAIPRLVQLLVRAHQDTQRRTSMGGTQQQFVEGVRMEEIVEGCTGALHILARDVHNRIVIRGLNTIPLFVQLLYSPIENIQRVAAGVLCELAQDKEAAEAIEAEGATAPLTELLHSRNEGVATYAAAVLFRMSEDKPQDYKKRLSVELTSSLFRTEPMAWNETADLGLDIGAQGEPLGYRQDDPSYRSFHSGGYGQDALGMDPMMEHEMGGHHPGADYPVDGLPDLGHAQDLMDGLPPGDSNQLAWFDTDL

T3: full-length beta-Catenin (Uniprot ID P35222) (Homo sapiens (Human), UniProt P35222 1-781)
T3 construct: the AlphaScreen used a Histidine (Nickel Chelate) detection kit, so a His tag is likely but not described; also called B-Catenin; bCat
T3 sequence: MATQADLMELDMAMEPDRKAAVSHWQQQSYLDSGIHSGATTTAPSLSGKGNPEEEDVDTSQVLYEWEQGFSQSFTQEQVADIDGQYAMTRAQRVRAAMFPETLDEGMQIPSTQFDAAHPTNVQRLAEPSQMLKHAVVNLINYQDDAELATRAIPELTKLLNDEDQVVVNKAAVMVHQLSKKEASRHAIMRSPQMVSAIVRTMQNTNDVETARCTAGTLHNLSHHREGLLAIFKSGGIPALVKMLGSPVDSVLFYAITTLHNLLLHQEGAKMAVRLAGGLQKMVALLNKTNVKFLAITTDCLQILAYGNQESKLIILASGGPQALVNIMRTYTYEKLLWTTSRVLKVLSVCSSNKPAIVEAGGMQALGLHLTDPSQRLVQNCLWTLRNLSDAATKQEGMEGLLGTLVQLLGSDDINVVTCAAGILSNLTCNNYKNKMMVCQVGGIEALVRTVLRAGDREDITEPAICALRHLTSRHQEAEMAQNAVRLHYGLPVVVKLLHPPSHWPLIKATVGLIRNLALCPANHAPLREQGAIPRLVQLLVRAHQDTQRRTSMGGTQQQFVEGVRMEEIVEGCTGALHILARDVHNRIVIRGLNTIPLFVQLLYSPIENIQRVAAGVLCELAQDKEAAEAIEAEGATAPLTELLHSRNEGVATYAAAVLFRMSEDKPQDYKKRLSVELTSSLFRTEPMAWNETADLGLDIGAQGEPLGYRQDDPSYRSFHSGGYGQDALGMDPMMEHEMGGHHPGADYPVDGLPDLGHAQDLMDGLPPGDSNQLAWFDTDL


How the values were obtained:
[1] = molecular target: T1, B-cat-Halo (beta-catenin HaloTag …); assay: cell-based or functional assay
B-cat-Halo = molecular target: T2, B-cat-Halo; assay: cell-based or functional assay
[2] = molecular target: T3, full-length beta-Catenin (Uniprot ID …); assay: FP competition vs 5FAM-TCF4(10-53) probe on full-length beta-catenin
Description: The plate was incubated protected from light for 60 minutes at 20° C. prior to read. Reads were performed on a CLARIOstar plate reader (BMG Labtech) in duplicate, and data were fitted to a 1:1 binding model with hill slope using an in-house script. All provided concentrations are final concentrations.

[3] = molecular target: T3, full-length beta-Catenin (Uniprot ID …); assay: AlphaScreen competition vs biotin-TCF4(10-53) on full-length beta-catenin
Outline: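 Titrated peptide was preincubated 15 minutes at 20° C, then donor and acceptor beads were added for 60 minutes at 20° C protected from light. Reads were done in duplicate, and data were fitted to a 1:1 binding model with Hill slope; concentrations are final.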

| NanoBRET Abs IC50 [1] | EC50 [3] | Binder | other results |
| --- | --- | --- | --- |
| > 20 µM | – | Ac-[αAllylPro][(EtSSPh)AspE][tBuAla][B5(4)]DDAAFL[PyrS2″][3Thi][Bta]Q-NH2 (staple 1-4, 4-11; also: isomer composition, later eluting HPLC peak) [I-1953] | – |
| – | – | Ac-[αAllylPro]D[tBuAla][B5(3)]D[Phe(3-COOH)]QAFL[PyrS2″][2F3MeF][Phe(4-Cl)]A-NH2 (staple 1-4, 4-11) [I-2223] | NanoBRET Abs IC50 (B-cat-Halo): 9 µM |
| – | 0.04 µM | Ac-[αAllylPro]DA[B5(4)]DDAAFQ[S8]F[Bta]Q-NH2 (staple 1-4, 4-11, Ac-PL3-Asp-Ala-B5-Asp-Asp-Ala-Ala-Phe-Gln-S8-Phe-BztA-Gln-NH2; stapled peptide composition) [I-294] | EC50 [2]: 0.13 µM |
| – | 3.24 µM | XDAXDDAAFVXFWQ (not fully specified; N-terminal acetyl (Ac); C-terminal amide (NH2); PL3 at 1, B5 at 4, S8 at 11, 3ClF (printed 3C1F) at 12; stapled PL3-B5 and B5-S8, Ac-PL3-Asp-Ala-B5-Asp-Asp-Ala-Ala-Phe-Val-S8-3C1F-Trp-Gln-NH2; stapled peptide composition) [I-310] | – |
| > 20 µM | – | Ac-[αAllylPro]D[tBuAla][B5(4)][(EtSSPh)AspE]DAAFL[PyrS2″][3Thi][Bta]Q-NH2 (staple 1-4, 4-11; also: isomer composition, earlier eluting HPLC peak) [I-1954] | – |
| – | 1.24 µM | XDAXDDAAFVXFWQ (not fully specified; N-terminal acetyl (Ac); C-terminal amide (NH2); PL3 at 1, B5 at 4, S8 at 11, 3ClF (printed 3C1F) at 12; stapled PL3-B5 and B5-S8, Ac-PL3-Asp-Ala-B5-Asp-Asp-Ala-Ala-Phe-Val-S8-3C1F-Trp-Gln-NH2; stapled peptide composition) [I-311] | – |
| – | 3.6 µM | XDAXDDAAFVXFWQ (not fully specified; N-terminal acetyl (Ac); C-terminal amide (NH2); PL3 at 1, B5 at 4, S8 at 11, 4ClF (printed 4C1F) at 12; stapled PL3-B5 and B5-S8, Ac-PL3-Asp-Ala-B5-Asp-Asp-Ala-Ala-Phe-Val-S8-4C1F-Trp-Gln-NH2; stapled peptide composition) [I-313] | – |
| – | ≥ 10 µM | XDAXDDAAFVXFWQ (not fully specified; N-terminal acetyl (Ac); C-terminal amide (NH2); PL3 at 1, B5 at 4, S8 at 11, 4ClF (printed 4C1F) at 12; stapled PL3-B5 and B5-S8, Ac-PL3-Asp-Ala-B5-Asp-Asp-Ala-Ala-Phe-Val-S8-4C1F-Trp-Gln-NH2; stapled peptide composition) [I-312] | – |
| – | 0.443 µM | Ac-[αAllylPro]DA[B5]DDAA[Phe(2-F)]V[S8]FWQ-NH2 (staple 1-4, 4-11, Ac-PL3-Asp-Ala-B5-Asp-Asp-Ala-Ala-2FF-Val-S8-Phe-Trp-Gln-NH2; stapled peptide composition) [I-317] | EC50 [2]: 5 µM |
| – | 9.9 µM | XHAXDEAAFVXFWQ (not fully specified; N-terminal acetyl (Ac); C-terminal amide (NH2); PL3 at 1, B5 at 4, S8 at 11; stapled PL3-B5 and B5-S8, Ac-PL3-His-Ala-B5-Asp-Glu-Ala-Ala-Phe-Val-S8-Phe-Trp-Gln-NH2; stapled peptide composition) [I-315] | – |
| – | – | Ac-[αAllylPro]D[tBuAla][B5(3)]D[Phe(3-COOH)]AAFL[PyrS2″][2F3MeF][Phe(4-Cl)]S-NH2 (staple 1-4, 4-11) [I-2222] | NanoBRET Abs IC50 (B-cat-Halo): 11.7 µM |
| – | 0.054 µM | XDAXDDAAFVXFWQ (not fully specified; N-terminal acetyl (Ac); C-terminal amide (NH2); PL3 at 1, B5 at 4, S8 at 11, 2FF at 12; stapled PL3-B5 and B5-S8, Ac-PL3-Asp-Ala-B5-Asp-Asp-Ala-Ala-Phe-Val-S8-2FF-Trp-Gln-NH2; stapled peptide composition) [I-319] | – |
| 3.8 µM | – | Ac-[αAllylPro]D[tBuAla][B5(4)]D[TfeGA]AAF[(Morph)GlnR][PyrS2″][3Thi][Bta]Q-NH2 (staple 1-4, 4-11) [I-1943] | – |
| > 20 µM | – | Ac-[αAllylPro]D[tBuAla][B5(4)][(EtSSHex)AspE]DAAFL[PyrS2″][3Thi][Bta]Q-NH2 (staple 1-4, 4-11) [I-1961] | – |
| 20.4 µM | – | Ac-[αAllylPro][(EtSSHex)AspE][tBuAla][B5(4)]DDAAFL[PyrS2″][3Thi][Bta]Q-NH2 (staple 1-4, 4-11) [I-1960] | – |
